Measurements from patent CN117460529A (dated 2024).
One block for each binder: values may come before it.

How the values were obtained:
[1] = molecular target: T1, 人ICOS (HTRF测定) (human, UniProt Q9Y6W8 21-140, limits assumed); test: HTRF binding assay, HEK supernatant with human IgG1 antibody
T1 construct: the HTRF construct is described only in US 9,957,323; also called human ICOS; ICOS受体
T1 sequence (looked up): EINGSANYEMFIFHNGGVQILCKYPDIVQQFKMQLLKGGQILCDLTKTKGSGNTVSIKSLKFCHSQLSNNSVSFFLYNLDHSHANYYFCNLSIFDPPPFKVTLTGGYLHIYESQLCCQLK

[2] = molecular target: T2, 小鼠ICOS (HTRF测定) (mouse, UniProt Q9WVS0 21-144, limits assumed); test: as above
T2 construct: the HTRF construct is described only in US 9,957,323; also called mouse ICOS; mICOS
T2 sequence (looked up): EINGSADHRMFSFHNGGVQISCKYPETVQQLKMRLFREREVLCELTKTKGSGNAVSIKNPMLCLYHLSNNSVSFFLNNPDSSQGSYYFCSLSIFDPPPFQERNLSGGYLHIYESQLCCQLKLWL

[3] = molecular target: T3, 细胞表面上表达的人ICOS (human, UniProt Q9Y6W8 21-199); test: flow cytometry on CHO-S cells expressing ICOS, purified IgG1
T3 construct: whole, on cells; also called hICOS; human ICOS on CHO-S cells
T3 sequence (looked up): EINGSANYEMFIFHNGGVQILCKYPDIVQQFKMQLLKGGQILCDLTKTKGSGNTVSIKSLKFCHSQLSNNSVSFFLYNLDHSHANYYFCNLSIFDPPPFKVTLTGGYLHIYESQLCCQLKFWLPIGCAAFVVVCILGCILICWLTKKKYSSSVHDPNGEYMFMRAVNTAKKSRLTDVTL

[4] = molecular target: T4, CHO-S细胞表面上表达的小鼠ICOS (mouse, UniProt Q9WVS0 21-200); test: as above
T4 construct: whole, on cells; also called mICOS; mouse ICOS on CHO-S cells
T4 sequence (looked up): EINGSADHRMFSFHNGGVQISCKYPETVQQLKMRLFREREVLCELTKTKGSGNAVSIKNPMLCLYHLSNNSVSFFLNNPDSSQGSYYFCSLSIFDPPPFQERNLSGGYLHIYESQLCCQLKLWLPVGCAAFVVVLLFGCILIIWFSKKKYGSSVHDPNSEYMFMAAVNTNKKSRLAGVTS

[5] = molecular target: T3, 细胞表面上表达的人ICOS; test: Mirrorball assay on CHO-S cells expressing ICOS; total binding defined by reference antibody, non-specific by hybrid control hIgG1
[6] = molecular target: T4, CHO-S细胞表面上表达的小鼠ICOS; test: as above
[7] = molecular target: T3, 细胞表面上表达的人ICOS; test: receptor occupancy on patients' CD4 memory T cells, chip cytometry

- 作用 (% effect, 等式1) [1]: > 5%
- 作用 (% effect, 等式1) [2]: > 5%
- fold over negative control (几何平均值) [3]: > 10 倍
- fold over negative control (几何平均值) [4]: > 10 倍
- 作用 (% effect) [5]: > 1%
- 作用 (% effect) [6]: > 1%
B1: CL-61091 (antibody, V domains shown)
VH: QVQLMQSGTEVKKPGASVKVSCKTSGYTFTTYGITWVRQAPGQGLEWMGWISAYSGDTDYAQKFQGRVTVTTDTSTNTAYMELRSLKSDDTAVYYCARSSGWPHHYGMDVWGQGTTVTVSS
VL: DIVMTQSPLSLPVTPGEPASISCRSSQSLLHSNGFNYFDWYLQKPGQSPQLLIFLVSNRASGVPDRFSGSGSGTDFTLKISRVEAEDVGIYYCMQALQTPLTFGGGTKVEIK

- binding result [7]: binds
B2: STIM003 (antibody, V domains shown)
VH: EVQLVESGGGVVRPGGSLRLSCVASGVTFDDYGMSWVRQAPGKGLEWVSGINWNGGDTDYSDSVKGRFTISRDNAKNSLYLQMNSLRAEDTALYYCARDFYGSGSYYHVPFDYWGQGILVTVSS
VL: EIVLTQSPGTLSLSPGERATLSCRASQSVSRSYLAWYQQKRGQAPRLLIYGASSRATGIPDRFSGDGSGTDFTLSISRLEPEDFAVYYCHQYDMSPFTFGPGTKVDIKR
notes: also called KY1044; SAR445256

- 作用 (% effect, 等式1) [1]: > 5%
- 作用 (% effect, 等式1) [2]: > 5%
- fold over negative control (几何平均值) [3]: > 10 倍
- fold over negative control (几何平均值) [4]: > 10 倍
- 作用 (% effect) [5]: > 1%
- 作用 (% effect) [6]: > 1%
B3: CL-74570 (antibody, V domains shown)
VH: EVQLVESGGGVIRPGGSLRLSCAASGFTFDDYGMSWVRQAPGKGLEWVSGINWIGDNTDYADSVKGRFTISRDNAKNSLYLQMNSLRAEDTALYYCARDYFGSGSYYNVPF
VL: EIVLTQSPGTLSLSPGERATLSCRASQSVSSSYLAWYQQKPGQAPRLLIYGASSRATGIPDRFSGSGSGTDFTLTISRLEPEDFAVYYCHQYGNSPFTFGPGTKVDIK
